Laboratory results as given in patent US20130177979A1, “METHODS AND COMPOSITIONS FOR CELL PERMEABLE STAT3 INHIBITOR” (University of Central Florida Research Foundation, Inc., priority 2010, published 2013).

Experiments:
[1] = biological target: GpYLPQTV (IL-6R/gp130-derived pTyr peptide); experiment: SPR (SensiQ), His-tagged protein immobilised on HisCap chip, pTyr peptide as analyte
[2] = biological target: 5-carboxyfluorescein-GpYLPQTV-NH2; experiment: Fluorescence polarization saturation curve; 10 nM 5-carboxyfluorescein-GpYLPQTV-NH2 probe with increasing purified His-Stat3
[3] = biological target: GpYIKTE (Stat1 pY701 peptide); experiment: SPR (SensiQ), His-tagged protein immobilised on HisCap chip, pTyr peptide as analyte
[4] = biological target: GpYVKPQ (pTyr peptide of Stat5); experiment: as above
[5] = biological target: PEpYINQS (pY1068 peptide of EGFR); experiment: as above
[6] = biological target: PVpYHNQP (pY1086 peptide of EGFR); experiment: as above
[7] = biological target: PpYLKTK (Stat3-derived pTyr705 peptide); experiment: as above
[8] = biological target: GpYVKPQ (pTyr peptide of Stat5); experiment: SPR (SensiQ); His-tagged Stat3 SH2 domain immobilised on a HisCap sensor chip, GpYVKPQ passed over as analyte; sensorgram shown at 100 µM

Kd [1] [µM]	EC50 (read off the curve) [2] [µM]	Kd [3] [µM]	Kd [4] [µM]	Kd [5] [µM]	Kd [6] [µM]	Kd [7] [µM]	Kd [8] [µM]	Substance
0.02	0.1							His-tagged Stat3 (full-length Stat3)
0.03		6.6	5200	0.4	2.6	1.6	5140	His-tagged Stat3 SH2 domain
